Data taken from the DeepSol protein solubility set.

Experiment: soluble on expression in E. coli; label from the status in PepcDB or PDB records

Row | Sequence | soluble on expression in E. coli
1 | MSLSDPIKIGFLAPLTGPVSSWGLPGLHGCRLWEDWLNRAGGILVGGRRYPVSIVPFDCGYDPERAMEGARHLVHTEQVKLLMMLGGDTFTPLRGFLTANKVLTSTLLPSDLSPDTRYLIAPSEVHPIYNVTGVDWLARNRPELRRVAMCSQKDALGLPSIATYRAAFEAAGVPVVKEVEYDPEMTDVATIVQPMLDAQPDVLCWCTSYTPMVHAMTEYAHAKGFSGQILSCTLDNYQRLVARTSAEFMEGALFQFPDFDDPKLARKAFFFNRPSTFFKEYNARYPGNWSAVSWEYVAILDIWHAAVEKVASVHPVSVLATMKQMDPVTHAFGPARWWGEGHHHHHH | not soluble
2 | MDEFGSLLGDSPRSSVNNWEKGVSIPKRDKLEKIAILGNMLPDQILYGRADEYLYDLIDSSFNVKFSDNILYEIFESVPPEKRSYDDLMWLAVAKYFIDNGTYGKVVGKFNYISMLGIPNLYTGSYQNEFIEQREDYKQQEVKYYVYADPEKNILHIMPFVPNEKNIELLYEFPELLEQQADHEVFTANFEQIGLTLKGSTIVYYGIDKQKLEAKTQAYKYDEAVDLYRIAQLPETLSMFDDEIQKQISFLKSK | not soluble
3 | MQARYRDWGIFKYWFRAVEKNAPWVHKIFIITDHQNPKFLNKHSSKIVFVNHEDFIPNEYLPTFNSDAIEIGIQNIPGLSEHFVFFNDDMFINKPVKPIDFFDGNIPKDSGVMGPQFPISNSITHITVNNMEIINKYFLKKKVLRKYFFKFFNWRYGKDNIRTATALPWQVFIGFYDMHIPISFLKSTFDNVWSEVGNLLSQNYQHRFRSQLDYSVWLMRYFQLASGNFFPRRTRFGKYYNLGEQTEEIINDIKTGKHALIVLNDQESINDYPYEKKLVNEVFERRYSRLEHHHHHH | soluble
4 | MHKRATSPLSAARTRRKPHGWKKREDDGVGGRFLSIGECMVELSQAGNGLLRKGFAGDTFNAAWYARACLPQDWSVDYFTALGDDPLSEDMLAFIAEAGIGTEKIRRIKGGTPGLYLINLKDGERTFSYWRNAAAARQLAADADHLRKTVESADVVYFSGITLAILASAHDVDTFLAELRRARAAGKLVVFDPNIRPRLWADRDVMLETISNGARAATLVMPSFDDEASHFGDVSVEATIARYRSLGVENIVVKDGAKGATLDFGGSRSHAPAEKAVDVVDTTSAGDSFNGAFLARYVTGSSPEEAATFAARAAATVIGHHGALISPELLPLVG | not soluble
5 | STDIQMTQSPSSLSASVGDRVTITCQASQDINNYLIWYQQKPGQAPKLLIYDASTLETGVPSRFSGSGSGTEFTFTISSLQPEDLATYYCQQYDNLPYTFGQGTKLEIKR | soluble
6 | MSLTLAFAYVRASTIEEVRQGSNERQKEAIRQYTYQKGYELEIFEDKAKSGRNTLRPEFERMLKSLDRRPQIVIVSKIDRFARSLSDLLKTLEYLDQNGVGFVSVNDPGIDTTTPNGRLLLQILGAFAEFERNMINSRTKAGREQAQSKGVKKGIITITTDPNSSSVDKLAAALEHHHHHH | soluble
7 | MSLESKPVVFHDVPQDHWAFEAISDLGNAGIIAGYGHGIFGLGDDVTREQVAALIYRSMEGIEEKEEYENPYGDLDEHGSTLFLEEILALTEMGIFQGDEQGNFRPKDTLTRAEMAQVIATAFDLEVKAPHSFNDVPANSWAKDAISAVQSNQIAAGIGQGKFAPEMKVTREQYAQFLYNALTNEHAEEGHHHHHH | soluble
8 | MSLTAPLRAGQMNFYDEPYNPVLNLHIQPSVKDENQRSTWPIIDTSNTSTQIARAHFEKHPPNNLRKSNFFHFVIALYDRNSQPIEVERTQFAGFVEKEKEVDGQDTRNGIHYRLSLMFQNGIRSEHDLFVRLIDSSTKQAITYEGQDKNPEMCRVLLTHEVMCSRCCEKKSCGNRNETPSDPVIIDRFFLKFFLKCNQNCLKNAGNPRDMRRFQVVLCSSARIDGPLLAVSDNMFVHNNSKHGRRTKRTDASDDSEYSESAELPSSVPVIKALFPSEGWIQGGTQVVLIGENFFEGLQVAFGTASPNWGESVQLISPHAIRVTTPPKHSAGPVDVTLQYKSKTYSRGTPLRFSYITLAEPGIEYGFQRLQKLLPKYPGDPERLPKDQILKRAAELAEALYNRTSTESLSSYYHTQFDATSDYAARTHTSPRSTLPYGAGPPALSSAVYQTSYPTVNATPAANFLNTQTGFATFGAVNPFAATLQSSSRLS | not soluble
9 | MAHHHHHHMEIKTASKIVRRVSNVEAFDKSGSVFKGYQIWTDISPTIENDPNIMFVKCVVQQGSKKEKLTVVQIDPPGTGTPYDIDPTHAWNCNSQVDPMSFGDIGLLNHTNIPCVLDFLKHRYLKNQIYTTAVPLIVAINPYKDLGNTTNEWIRRYRDTADHTKLPPHVFTCAREALSNLHGVNKSQTIIVSGESGAGKTEATKQIMRYFASSKSGNMDLRIQTAIMAANPVLEAFGNAKTIRNNNSSRFGRFMQLVISHEGGIRYGSVVAFLLEKSRIITQDDNERSYHIFYQFLKGANSTMKSKFGLKGVTEYKLLNPNSTEVSGVDDVKDFEEVIESLKNMELSESDIEVIFSIVAGILTLGNVRLIEKQEAGLSDAAAIMDEDMGVFNKACELMYLDPELIKREILIKVTVAGGTKIEGRWNKNDAEVLKSSLCKAMYEKLFLWIIRHLNSRIEPEGGFKTFMGMLDIFGFEVFKNNSLEQLFINITNEMLQKNFVDIVFERESKLYKDEGISTAELKYTSNKEVINVLCEKGKSVLSYLEDQCLAPGGTDEKFVSSCATNLKENNKFTPAKVASNKNFIIQHTIGPIQYCAESFLLKNKDVLRGDLVEVIKDSPNPIVQQLFEGQVIEKGKIAKGSLIGSQFLNQLTSLMNLINSTEPHFIRCIKPNENKKPLEWCEPKILIQLHALSILEALVLRQLGYSYRRTFEEFLYQYKFVDIAAAEDSSVENQNKCVNILKLSGLSESMYKIGKSMVFLKQEGAKILTKIQREKLVEWENCVSVIEAAILKHKYKQKVNKNIPSLLRVQAHIRKKMVA | not soluble
10 | MKVISLKKDSFNKGGAVITLLPEDKEDLFTVYQIVDKDDELIFKKKFTSKLDEAGKKKSTDLVKLKIKVISEDFDMKDEYLKYKGVTVTDESGASNVDIPVGKYLSFTLDYVYPFTIIKQNFNKFMQKLLNEACNIEYKSDTAAVVLQEGIAHVCLVTSSSTILKQKIEYSMPKKKRTTDVLKFDEKTEKFYKAIYSAMKKDLNFDKLKTIILCSPGFYAKILMDKIFQYAEEEHNKKILDNKGMFFIAHCSTGYLQGINEVLKNPLYASKLQDTKYSKEIMVMDEFLLHLNKDDDKAWYGEKEVVKAAEYGAISYLLLTDKVLHSDNIAQREEYLKLMDSVESNGGKALVLSTLHSLGEELDQLTGIACILKYPLPDLDEDDGEE | soluble
11 | MGSDKIHHHHHHMELPCSLLCFVETLAVLRRSKSLSNEIIATGSRLVAGPSGAQDRAMTATRYDKNAKNVLGQELVPCSLDPVTGFYRNGCCETGPHDLGLHTVCAVMTRDFLAFSKAQGNDLSTPRPDLAFPGLKPGDRWCLCAGRWKEALDAGMAPQVVLEATHEEMLAVVPLGVLKDHAAA | not soluble
12 | MATHKPINILEAFAAAPPPLDYVLPNMVAGTVGALVSPGGAGKSMLALQLAAQIAGGPDLLEVGELPTGPVIYLPAEDPPTAIHHRLHALGAHLSAEERQAVADGLLIQPLIGSLPNIMAPEWFDGLKRAAEGRRLMVLDTLRRFHIEEENASGPMAQVIGRMEAIAADTGCSIVFLHHASKGAAMMGAGDQQQASRGSSVLVDNIRWQSYLSSMTSAEAEEWGVDDDQRRFFVRFGVSKANYGAPFADRWFRRHDGGVLKPAVLERQRKSKGVPRGEA | soluble
13 | MSAPLKHPNAVVLQPPTVTISPLIRFGRYAALSLGVVYGFFRLRQIREYHADIREWDHEKAVAAAEEAAKKKKWLAKDEMRYLMQVVNIPFEEGVKQFGVADLYKED | not soluble
14 | GPGSMQERESLLKEYKGLLANLEEAFDLKRSNEADQEVDDLIDETKAELRTVVASLNASEVIEVTKDVTKVVDADGNTVILYSKVAPYEVHFDNAMWYSCVITDVVQPETALERVRYKAWILGYNVEEETYSEQLRVWQPQAAEGETTLRSGVACHAVNPRSGRFESAKVVRLTLSDTVILTFSDVVEMTKEVGETDGAGAAGELATGKRDPSGGDTSAVTEEVPLSHVRVGRFYQQLRKRSTLTSEERARRRAQNVERKRVRRETKRQQDANVASQNANDWQRLVEDMGLATGCAKKRR | soluble
15 | MLLQELHIYSEQSSSNTKVSIKNKDGEILFEYCYSNDAIPTFNPIELLRLSLEGDIGVLFQMKTSISQKSKKDDFRISCEQSRSETSRMNQ | not soluble
16 | MRKWQCVVCGFIYDEALGLPEEGIPAGTRWEDIPADWVCPDCGVGKIDFEMIEIA | soluble
17 | GSGYREVEYWDQRYQGAADSAPYDWFGDFSSFRALLEPELRPEDRILVLGCGNSALSYELFLGGFPNVTSVDYSSVVVAAMQACYAHVPQLRWETMDVRKLDFPSASFDVVLEKGTLDALLAGERDPWTVSSEGVHTVDQVLSEVSRVLVPGGRFISMTSAAPHFRTRHYAQAYYGWSLRHATYGSGFHFHLYLMHKGGKLSVAQLALGAQILSP | soluble
18 | MGKLAADQLTLSYDSTVIIDGVDLKIEEGKITALIGANGCGKSTILKSLARLMAPKSGTVLLEGKDIHRQPSKEVAKKLAILPQSPQAPEGLTVEELCYFGRHPHKKLLSKHTQEDHDMVEWALEATGMIELKDRTLDALSGGQRQRAWISMALAQGTDLLLLDEPTTYLDISHQIEVLELLKKLNRDHGRTVVMVLHDLNQAAQYADYLISVLDGKIYNAGTPEDVFTQPFFREVFGLECCIMRSPIDQKPMCLPTGLCPKLRAK | not soluble
19 | MALADISGYLDVLDSVRGFSYLENAREVLRSGEARCLGNPRSEPEYVKALYVIGASRIPVGDGCSHTLEELGVFDISVPGEMVFPSPLDFFERGKPTPLVRSRLQLPNGVRVWLKLEWYNPFSLSVKDRPAVEIISRLSRRVEKGSLVADATSSNFGVALSAVARLYGYRARVYLPGAAEEFGKLLPRLLGAQVIVDPEAPSTVHLLPRVMKDSKNEGFVHVNQFYNDANFEAHMRGTAREIFVQSRRGGLALRGVAGSLGTSGHMSAAAFYLQSVDPSIRAVLVQPAQGDSIPGIRRVETGMLWINMLDISYTLAEVTLEEAMEAVVEVARSDGLVIGPSGGAAVKALAKKAAEGDLEPGDYVVVVPDTGFKYLSLVQNALEGAGDSV | soluble
20 | EDPSLDRPFISEGTTLKDLIYDMTTSGSGSGLPLLVQRTIARTIVLQESIGKGRFGEVWRGKWRGEEVAVKIFSSREERSWFREAEIYQTVMLRHENILGFIAADNKDNGTWTQLWLVSDYHEHGSLFDYLNRYTVTVEGMIKLALSTASGLAHLHMEIVGTQGKPAIAHRDLKSKNILVKKNGTCCIADLGLAVRHDSATDTIDIAPNHRVGTKRYMAPEVLDDSINMKHFESFKRADIYAMGLVFWEIARRCSIGGIHEDYQLPYYDLVPSDPSVEEMRKVVCEQKLRPNIPNRWQSCEALRVMAKIMRECWYANGAARLTALRIKKTLSQLSQQEGIKM | soluble
21 | SSDLGSEELEEEGENDLGEYEGERNELGERHGHGKARLPNGDTYEGNYESGKRHGQGTYKFKNGARYVGDYVKNKKHGQGTFVYPDGSRYEGEWADDQRHGHGVYYYVNNDTYTGEWFNHQRHGQGTYFYAETGSKYVGTWVHGQQEGAAELIHLNHRYQGKFINKNPVGPGKYVFDVGCEQHGEYRLTDVERGEEEEEEETLVSIVPKWKALKITELALWTPTLSEEHPPAEGQGQEEVQGATGAGEPSDDIQAEGFEVDAEPRTGEEDIDFRQESQENSYDLDQGNPNFDEEQLDLQE | soluble
